In US20160194639:

Target: α2-antiplasmin

B1: endogenous plasmin of mouse brain slices (protein)
chain: VYLSECKTGIGNGYRGTMSRTKSGVACQKWGATFPHVPNYSPSTHPNEGLEENYCRNPDNDEQGPWCYTTDPDKRYDYCNIPECEEECMYCSGEKYEGKISKTMSGLDCQAWDSQSPHAHGYIPAKFPSKNLKMNYCRNPDGEPRPWCFTTDPTKRWEYCDIPRCTTPPPPPSPTYQCLKGRGENYRGTVSVTVSGKTCQRWSEQTPHRHNRTPENFPCKNLEENYCRNPDGETAPWCYTTDSQLRWEYCEIPSCESSASPDQSDSSVPPEEQTPVVQECYQSDGQSYRGTSSTTITGKKCQSWAAMFPHRHSKTPENFPDAGLEMNYCRNPDGDKGPWCYTTDPSVRWEYCNLKRCSETGGSVVELPTVSQEPSGPSDSETDCMYGNGKDYRGKTAVTAAGTPCQGWAAQEPHRHSIFTPQTNPRAGLEKNYCRNPDGDVNGPWCYTTNPRKLYDYCDIPLCASASSFECGKPQVEPKKCPGRVVGGCVANPHSWPWQISLRTRFTGQHFCGGTLIAPEWVLTAAHCLEKSSRPEFYKVILGAHEEYIRGLDVQEISVAKLILEPNNRDIALLKLSRPATITDKVIPACLPSPNYMVADRTICYITGWGETQGTFGAGRLKEAQLPVIENKVCNRVEYLNNRVKSTELCAGQLAGGVDSCQGDSGGPLVCFEKDKYILQGVTSWGLGCARPNKPGVYVRVSRFVDWIEREMRNN
plasmin activity in brain slices (D-VLK chromogenic plasmin substrate assay): addition of the plasmin inhibitor α2-antiplasmin (Bajou et al., 2008) inhibited this activity
